Consider one molecule from US20080279856A1, “Inhibition of Bradykinin Release” (Novo Nordisk Pharmaceuticals, Inc., priority 1999, published 2008).

Assay [1] relates to EC monolayers (HUVEC or BAEC). Nature of the assay: Transendothelial electrical resistance (TEER) of EC monolayers after HBP stimulation. Format: cell-based, human, bovine. How it is done: Human umbilical vein endothelial cells (HUVEC) are isolated from fresh umbilical cords as described by Jaffe et al., 1973, J. Clin. Invest. 52:2745-2756), and bovine aorta endothelial cells (BAEC) are isolated according to the method of Booyse et al., 1975, Thromb. Diath. Haemmorrh. 24:825-839) with a few modifications. Briefly, the lumen of the umbilical vein or bovine aorta is incubated with a 0.25% collagenase solution for 10 min, and detached endothelial cells washed out with PBS. Harvested cells are pelleted and resuspended in culture medium, seeded in tissue culture flasks and incubated under standard conditions. Medium is changed every 48 h until cultures have reached confluence (3-5 days). HUVEC or BAEC in the first to fifth passages are used in the experiments. Identification and purity determination of ECs are based on cobblestone morphology and characterization by factor VIII/vWf antigen (Booyse et al., 1975, Thromb. Diath. Haemmorrh. 24:825-839). Staining for factor VIII/vWf factor is homogeneous in the cells.
Cultured EC are detached by brief (2 min) trypsin-EDTA treatment (0.25% trypsin/0.01% EDTA) and replated onto either 0.2 μm pore size Anopore inorganic membrane or 3.0 μm pore size polycarbonate filters (Tissue Culture inserts, 10 mm; NUNC, Roskilde, Denmark). […] The ECs are grown to confluent monolayers, as assessed by daily microscopic observation and measurement of the electrical resistance across the monolayer.
For measurement of electrical resistance across the EC monolayer, the filter insert is transferred to a resistance measurement chamber (ENDOHM-12; World Precision Instruments, Sarasota, Fla., USA) modified so as to assure exact positioning of the electrodes in relation to each other and to the filter insert during repeated measurements. […] Direct readings of the electrical resistance are given by an ohmmeter (EVOM; World Precision Instruments, Sarasota, Fla., USA) connected to the electrodes of the resistance chamber. […]

Another assay concerns HUVEC or BAEC monolayers. Nature of the assay: EC intracellular free Ca2+ (fluo-3/AM, confocal microscopy). The conditions noted are these: HBP 75 μg/ml. The class given is cell-based, human, bovine. Here is the method: The Ca^2+ sensitive fluorescent probe fluo-3/AM is used for determination of changes in EC intracellular free Ca^2+. Confluent HUVEC or BAEC monolayers cultured on Biomatrix I coated filters are incubated with a Fluo-3/AM solution (3 μM in HBSS containing 2% FCS and […] HEPES), added to both the apical and basolateral surface, for 30 min at 37° C. The monolayers are washed three times and incubated with fresh HBSS in the dark for 20 min at room temperature before use to allow complete hydrolysis of the dye ester to its calcium sensitive free acid form. EC are stimulated with HBP added to the apical surface. Changes in EC Ca^2+i in response to HBP stimulation are measured through continuous registration of fluorescence intensity with a laser-scanning confocal imaging system (Insight Plus; Meridian Instruments Inc., Okemon, Mich.).

A further assay relates to EC monolayers. Kind of assay: F-actin distribution in EC (FITC-phalloidin staining). To be noted: HBP 75 μg/ml, 15 min. The class given is cell-based, human, bovine. How it is done: For analysis of F-actin distribution in EC in response to stimulation with HBP, confluent EC monolayers grown on Biomatrix coated coverslips are incubated with HBP or vehicle alone at 37° C. for 15 min. The monolayers are washed twice in culture medium and fixed in 3.7% formaldehyde in PBS for 10 min at room temperature. EC are permeabilized with 0.2% Triton® X-100 in PBS (1 min at 4° C.), washed twice and stained for actin filaments with FITC-conjugated phalloidin for 20 min at 37° C. The endothelial cells are again washed three times in PBS and viewed in a laser scanning confocal microscope.

Assay [2] is described as follows: 3H-LPS binding to HBP, scintillation proximity assay. The conditions noted are these: saturation, SPA. How it is done:
The affinity for lipopolysaccharide (3H-LPS) is measured by scintillation proximity assay technology (SPA) as described (Linde, V., Bjørn, S., Kastrup, J. S., and Flodgaard, H., 2000, Biotechniques 28:218-222). All samples are repeated in triplicates.
Background: Scintillation proximity formats need no separation of bound from free tracer.

Assay [3] in a line: 125I-BPTI binding to HBP, scintillation proximity assay. More on the design: species or system bovine. To be noted: competition with unlabeled BPTI; read-out: apparent IC50 of 125I-BPTI binding. How it is done:
(§1) The relative affinities of HBP and the mutants are determined by performing competition studies with […] of unlabeled BPTI.

The test system of a further assay is 125I-BPTI. The description is as above. Details: species or system bovine. Here is the method: as §1
For the next assay, the system named is fecal peritonitis. To be noted: HBP treatment; cited from earlier work.
In assay [4] the test system is endothelial cells and fibroblasts. To be noted: cited from earlier work.
A further assay relates to rat insulinoma cells. To be noted: IL-1 induced; cited from earlier work.

Where only a bound is given, the exact number is not on record here.

B1: HBP: Native human heparin-binding protein, mature form with the amino acid sequence SEQ ID NO:1 (protein, listed as Homo sapiens)
chain: IVGGRKARPRQFPFLASIQNQGRHFCGGALIHARFVMTAASCFQSQNPGVSTVVLGAYDLRRRERQSRQTFSISSMSENGYDPQQNLNDLMLLQLDREANLTSSVTILPLPLQNATVEAGTRCQVAGWGSQRSGGRLSRFPRFVNVTVTPEDQCRPNNVCTGVLTRRGGICNGDGGTPLVCEGLAHGVASFSLGPCGRGPDFFTRVALFRDWIDGVLNNPGPGPA
In the case of B1, the “onset of decrease in transendothelial resistance” value in assay [1] (HBP 75 μg/ml to upper compartment) is given as “within one min”. For the same molecule, the “decrease in transendothelial resistance, maximum” value in assay [1] (HBP 75 μg/ml to upper compartment, after 15 min) is 30%±3%. Besides, the “dose dependence of EC responses (TEER)” value in [1] (HBP 25, 50 and 75 μg/ml) is “clearly dose-dependent”. Further, in the assay with HUVEC or BAEC monolayers, the “change in EC cytosolic Ca2+ (fluo-3 fluorescence intensity)” value was “rapid increase in fluorescence intensity” and the “time to peak of Ca2+ fluorescence” value is listed as at most 1 min. Further, the “F-actin content and distribution” value with EC monolayers is “substantial changes in F-actin content and distribution”. For the same molecule, the “apparent Kd for 3H-LPS” value in [2] is on record as “approximately 0.7 μg/mL”. Also, in assay [3], the IC50 is about 7 nM. The “binding of BPTI” value with 125I-BPTI is given as “binds BPTI”. In addition, in the assay with fecal peritonitis, the survival entry is reported as “rescue mice from an otherwise lethal injury”. For the same molecule, the cell contraction result in assay [4] is “induce contraction”. For the same molecule, the apoptosis entry in the assay on rat insulinoma cells was “rescues rat insulinoma cells from IL-1 induced apoptosis”.

The IC50 is the concentration at which inhibition is half-maximal.
